Results from publication PMC12136191, “Structural basis for mTORC1 regulation by the CASTOR1-GATOR2 complex” (Research Square, 2025).

B1: MIOS, subunit within purified GATOR2 (natural protein)
chain: MSGTKPDILWAPHHVDRFVVCDSELSLYHVESTVNSELKAGSLRLSEDSAATLLSINSDTPYMKCVAWYLNYDPECLLAVGQANGRVVLTSLGQDHNSKFKDLIGKEFVPKHARQCNTLAWNPLDSNWLAAGLDKHRADFSVLIWDICSKYTPDIVPMEKVKLSAGETETTLLVTKPLYELGQNDACLSLCWLPRDQKLLLAGMHRNLAIFDLRNTSQKMFVNTKAVQGVTVDPYFHDRVASFYEGQVAIWDLRKFEKPVLTLTEQPKPLTKVAWCPTRTGLLATLTRDSNIIRLYDMQHTPTPIGDETEPTIIERSVQPCDNYIASFAWHPTSQNRMIVVTPNRTMSDFTVFERISLAWSPITSLMWACGRHLYECTEEENDNSLEKDIATKMRLRALSRYGLDTEQVWRNHILAGNEDPQLKSLWYTLHFMKQYTEDMDQKSPGNKGSLVYAGIKSIVKSSLGMVESSRHNWSGLDKQSDIQNLNEERILALQLCGWIKKGTDVDVGPFLNSLVQEGEWERAAAVALFNLDIRRAIQILNEGASSEKGDLNLNVVAMALSGYTDEKNSLWREMCSTLRLQLNNPYLCVMFAFLTSETGSYDGVLYENKVAVRDRVAFACKFLSDTQLNRYIEKLTNEMKEAGNLEGILLTGLTKDGVDLMESYVDRTGDVQTASYCMLQGSPLDVLKDERVQYWIENYRNLLDAWRFWHKRAEFDIHRSKLDPSSKPLAQVFVSCNFCGKSISYSCSAVPHQGRGFSQYGVSGSPTKSKVTSCPGCRKPLPRCALCLINMGTPVSSCPGGTKSDEKVDLSKDKKLAQFNNWFTWCHNCRHGGHAGHMLSWFRDHAECPVSACTCKCMQLDTTGNLVPAETVQP
notes: MIOS, subunit of GATOR2; codon optimized synthetic DNA; The MIOS chain of m1, written alone for the pairs that touch in the structure; also called front face MIOS; source: HEK293-GNTI cells, co-expressed with the other GATOR2 subunits, purified as part of GATOR2

Key:
[1] = target: B1; assay: cryo-EM structure; purified GATOR2 at 0.45 mg/mL with 3-fold molar excess of CASTOR1^apo, 45 minutes on ice, frozen on grids; no Arg; Titan Krios; settings: both partners purified
[2] = target: the molecule itself; assay: as above

Binder	binding result [1]	binding result [2]
CASTOR1 S111A/D304A (apo-locked mutant) (natural protein, CASTOR1 (arginine sensor) with S111A and D304A; codon optimized synthetic DNA; Homodimer in the structure; also called CASTOR1^apo; 6X-His-CASTOR1^apo; source: E. coli BL21(DE3), pET-28a+, purified (Ni-NTA, Superdex 200 gel filtration)) MELHILEHRVRVLSVARPGLWLYTHPLIKLLFLPRRSRCKFFSLTETPEDYTLMVDEEGFKELPPSEFLQVAEATWLVLNVSSHSGAAVQAAGVTKIARSVIAPLAEHHVAVLMLSTYQTDFILVREQDLSVVIHTLAQEFDIYREVGGEPVPVTRDDSSNGFPRTQHGPSPTVHPIQSPQNRFCVLTLDPETLPAIATTLIDVLFYSHSTPKEAASSSPEPSSITFFAFSLIEGYISIVMDAETQKKFPSDLLLTSSSGELWRMVRIGGQPLGFDECGIVAQIAGPLAAADISAYYISTFNFAHALVPEDGIGSVIEVLQRRQEGLAS	binds	binds
B1	–	binds
